B1: proOmpA (natural protein, Escherichia coli, UniProt P0A910 1-346, looked up)
chain: MKKTAIAIAVALAGFATVAQAAPKDNTWYTGAKLGWSQYHDTGFINNNGPTHENQLGAGAFGGYQVNPYVGFEMGYDWLGRMPYKGSVENGAYKAQGVQLTAKLGYPITDDLDIYTRLGGMVWRADTKSNVYGKNHDTGVSPVFAGGVEYAITPEIATRLEYQWTNNIGDAHTIGTRPDNGMLSLGVSYRFGQGEAAPVVAPAPAPAPEVQTKHFTLKSDVLFNFNKATLKPEGQAALDQLYSQLSNLDPKDGSVVVLGYTDRIGSDAYNQGLSERRAQSVVDYLISKGIPADKISARGMGESNPVTGNTCDNVKQRAALIDCLAPDRRVEIEVKGIKDVVTQPQA
notes: Precursor form (unfolded, diluted out of 6 M urea); also called preprotein; source: kept in 6 M urea before dilution
B2: His6-tagged SecB (natural protein, Escherichia coli)
chain: MSEQNNTEMTFQIQRIYTKDISFEAPNAPHVFQKDWQPEVKLDLDTASSQLADDVYEVVLRVTVTASLGEETAFLCEVQQGGIFSIAGIEGTQMAHCLGAYCPNILFPYARECITSMVSRGTFPQLNLAPVNFDALFMNYLQQQAGEGTEEHQ
notes: SecB chaperone, Escherichia coli; The tag is named explicitly only in Materials and for the SecB/proOmpA assembly; also called SecB tetramer; tetrameric SecB

Key:
[1] = molecular target: SecA (Escherichia coli) (UniProt P10408); details: cited from earlier work
[2] = molecular target: B2; assay: SEC; SecA monomer 3 uM and preformed SecB/proOmpA 2 uM incubated 1 h at 4 °C in buffer A (20 mM HEPES-KOH, 30 mM KCl, 1 mM DTT, pH 7.4); Superdex G200 analytical column at 4 °C; fractions checked by SDS-PAGE; details: both partners purified
[3] = molecular target: the molecule itself; assay: SEC; SecA monomer 3 uM and SecB monomer 30 uM incubated 1 h at 4 °C in buffer A (20 mM HEPES-KOH, 30 mM KCl, 1 mM DTT, pH 7.4); Superdex G200 analytical column at 4 °C; peak fraction checked by SDS-PAGE

Molecule: SecA (from UniProt P10408)
- Kd [1]: 1000 nM

Molecule: B1
- stoichiometry N [2]: 1 proOmpA per SecB tetramer

Molecule: B2
- stoichiometry N [3]: 4

Source: PMC3029384, “Dimeric SecA Couples the Preprotein Translocation in an Asymmetric Manner” (PLoS ONE, 2011)
